The source of these data is patent US20250295796A1, “CELL PENETRATING POLYPEPTIDES (CPPS) AND THEIR USE IN HUMAN THERAPY” (RDP PHARMA AG, priority 2021, published 2025).

Broadly, the IC50 is the concentration needed to halve the response being measured.

Test [1] has as its system LIXF 575L. Nature of the test: Monolayer assay, 96h treatment, LIXF 575L. Format: cell-based, human. The procedure: (§1) Monolayer Assay Propidium Iodid (PI). Cells were harvested from exponential phase cultures, counted and depending on the cell line 3.000 to 20.000 cells were plated in 96-well flat-bottom microtiter plates After a 24 h recovery period to allow cells to resume exponential growth, 10 μl of culture medium (four control wells/plate) or culture medium with the test compound were added by a liquid handling robotic system and treatment continued for four days. Compounds were applied in half-log increments at 10 concentrations in duplicate. Three independent experiments were performed. Cells were then washed with 200 μl PBS to remove dead cells followed by addition of 200 μl of a solution containing 7 μg/ml propidium iodide (PI) and 0.1% (v/v) Triton X-100. After an incubation period of 1-2 h at room temperature, fluorescence (FU) was measured using the Cytofluor 4000 microplate reader (excitation λ=530 nm, emission λ=620 nm) to quantify the amount of attached viable cells. Concentrations required for 50% inhibition of cell growth (IC50) were calculated by non-linear regression (log[conc. of inhibitor]versus response (% T/C)) using the analysis software GraphPad Prism®, Prism 5 for windows, version 5.01 (GraphPad Software Inc., CA).
CROMOC36—in vitro activity Human hepatocellular carcinoma cell lines IC50 values of CROMOC36 and Sorafenib, 96h treatment. […]

In test [2] the test system is human pancreatic tumor cell lines. Put plainly: Propidium iodide based monolayer proliferation assay, panel of 13 human pancreatic tumor cell lines. How it is done:
as §1
CROMOC36—in vitro activity Human pancreatic carcinoma cell lines. The aim of this study was to investigate the antitumor activity of CROMOC36 in vitro on a panel of 13 human pancreatic tumor cell lines. Antitumor activity was assessed after four days of CROMOC36 treatment using a propidium iodide based monolayer proliferation assay. Up to four experiments were performed in each cell line, testing CROMOC36 at ten concentrations in half-log increments up to 1 μM. Taxol, an antitumor agent commonly used for the treatment of pancreatic cancer, was used as a reference compound and tested in half-log steps up to 0.3 μM.

The test system of test [3] is PATU8902. Nature of the test: Propidium iodide monolayer assay, PATU8902. Format: cell-based, human. Particulars: PATU8902, four days. The procedure: as §1, with “Concentrations required for 50% inhibition of cell growth (IC50) were calculated by non-linear regression (log[conc. of inhibitor]versus response (% T/C)) using the analysis software GraphPad Prism®, Prism 5 for windows, version 5.01 (GraphPad Software Inc., CA).” left out
(§2) CROMOC36—in vitro activity Human pancreatic carcinoma cell lines. […] Antitumor activity was assessed after four days of CROMOC36 treatment using a propidium iodide based monolayer proliferation assay. […]

The test system of test [4] is HUPT3. Put plainly: Propidium iodide monolayer assay, HUPT3. The format is cell-based, human. Particulars: HUPT3, four days. How it is done:
as §1, with “Concentrations required for 50% inhibition of cell growth (IC50) were calculated by non-linear regression (log[conc. of inhibitor]versus response (% T/C)) using the analysis software GraphPad Prism®, Prism 5 for windows, version 5.01 (GraphPad Software Inc., CA).” left out
as §2

The subject of test [5] is PANC1. Nature of the test: Propidium iodide monolayer assay, PANC1. Format: cell-based, human. The conditions noted are these: PANC1, four days. The procedure: as §1, with “Concentrations required for 50% inhibition of cell growth (IC50) were calculated by non-linear regression (log[conc. of inhibitor]versus response (% T/C)) using the analysis software GraphPad Prism®, Prism 5 for windows, version 5.01 (GraphPad Software Inc., CA).” left out
as §2

Test [6] relates to lung cancer, ovarian cancer and neuroblastoma and colon cancer cells. Put plainly: SRB assay for 96 hours, cancer cells. The format is cell-based. The conditions noted are these: SRB 96 hours, various cancer cells; read-out: IC50 range. How it is done: Cells were harvested from exponential phase cultures, and depending on the cell line 10.000 to 30.000 cells were plated in 96-well flat-bottom microtiter plates. After a 24 h recovery period to allow cells to resume exponential growth, supernatant was discarded and 100 μl of culture medium (eight control wells/plate) or culture medium with the test compound were added by a liquid handling robotic system (Microlab® Starlet, Hamilton) and treatment continued for 72 hrs. Compounds were applied at 9 concentrations eight wells/concentration). At least three independent experiments were performed. For SRB staining, cells were fixed with SRB01 for 1h at 4° C. (final concentration of TCA=10%) washed with a plate washer (Hydroflex, Tecan©) for five times with H2O; and stained with 100 μl of SRB02 at room temperature for 10 min following 4 washes in SRB03 and finally 100 μl of developer solution SRB04 for 5 minutes with shaking. Optical density was assessed using a plate-reader (Sunrise, Tecan©) at 540 nm. Concentrations required for 50% inhibition of cell growth (IC50) were calculated by non-linear regression (log[conc. of inhibitor] versus response (% T/C)) using the analysis software GraphPad Prism®, Prism 5 for windows, version 5.01 (GraphPad Software Inc., CA). (SRB Buffers FIG. 25).
On the technique in general: Sulforhodamine B stains cellular protein and so reports cell mass.

The subject of test [7] is DNA double strand breaks (Phospho-H2AX, Phospho-H3). Nature of the test: Immunohistochemistry of liver specimens after single IV treatment. The format is in vivo, Male Sprague Dawley Rats. The conditions noted are these: samples after 13-15 days. An excerpt:
FIG. 8: Immunohistochemistry (IHC) analysis paraffin embedded liver specimens of Male Sprague Dawley Rats after single IV treatment with CROMOC36. Samples were collected after 13-15 days and IHC was used to assess the Histone surrogate-markers for DNA double strand breaks Phospho-H2AX and Phospho-H3 for analyzing the persistence of DNA double stand breaks (DSBs) at very high CROMOC concentrations in tumors in comparison to the KI67marker.
As a proof of the nuclease activity in vivo an Immunohistochemistry (IHC) analysis of paraffin embedded liver specimens of Male Sprague Dawley Rats after single IV treatment with CROMOC36.

Test [8] has as its system M5076 ovarian reticulum sarcoma tumor cell line. Put plainly: M5076 artificial hepatic metastasis model, i.v. route.

B1: CROMOC36: single chain PvuII endonuclease fused at its C-terminus to DDM36, PEGylated final product used in the Examples (protein)
chain: MSHPDLNKLLELWPHIQEYQDLALKHGINDIFQDNGGKLLQVLLITGLTVLPGREGNDAVDNAGQEYELKSINIDLTKGFSTHHHMNPVIIAKYRQVPWIFAIYRGIAIEAIYRLEPKDLEFYYDKWERKWYSDGHKDINNPKIPVKYVMEHGTKIYGSGGSGGSSHPDLNKLLELWPHIQEYQDLALKHGINDIFQDNGGKLLQVLLITGLTVLPGREGNDAVDNAGQEYELKSINIDLTKGFSTHHHMNPVIIAKYRQVPWIFAIYRGIAIEAIYRLEPKDLEFYYDKWERKWYSDGHKDINNPKIPVKYVMEHGTKIYGNSGSGKKKKKGKGSGLGSGKKKDPLGSGLGSGKKKKKGKGSGLGSGKKKDPLGST
modifications: PEGylated; peptide, CROMOC36
B1: the IC50 is 17 nM in test [1]; 45.9 nM in test [2] (13 pancreatic cell lines, four days treatment, read-out: geomean IC50); 2.33 nM in test [3]; approximately 10 nM in test [4]; approximately 10 nM in test [5]; 0.5 to 19 nM in test [6]. Besides, the antitumor activity entry in test [2] (on five of the cell lines tested, up to 1 μM) is “no activity or only marginal activity”. Further, the “DNA double strand breaks in liver (Phospho-H2AX, Phospho-H3 IHC)” value in test [7] is recorded as “DSBs are induced”. The “% ILS (mean survival time versus control group)” value in test [8] (CROMOC36 16 mg/kg i.v. q7dx3, Doxorubicin 6 mg/kg q4dx3 (MTD)) came out at 68%. The “antimetastatic activity in Liver M5076 allograft” value in test [8] (i.v. route, 16 mg/kg q7dx3) was “strong antimetastatic activity”.
